# Test results: patent US20250197491A1 (published 2025)
# Target: Human full length LILRB1 (UniProt Q8NHL6 24-650)
# Assay: flow cytometry, HEK293 cells overexpressing LILRB1
# Chain of Human full length LILRB1 (Q8NHL6 24-650): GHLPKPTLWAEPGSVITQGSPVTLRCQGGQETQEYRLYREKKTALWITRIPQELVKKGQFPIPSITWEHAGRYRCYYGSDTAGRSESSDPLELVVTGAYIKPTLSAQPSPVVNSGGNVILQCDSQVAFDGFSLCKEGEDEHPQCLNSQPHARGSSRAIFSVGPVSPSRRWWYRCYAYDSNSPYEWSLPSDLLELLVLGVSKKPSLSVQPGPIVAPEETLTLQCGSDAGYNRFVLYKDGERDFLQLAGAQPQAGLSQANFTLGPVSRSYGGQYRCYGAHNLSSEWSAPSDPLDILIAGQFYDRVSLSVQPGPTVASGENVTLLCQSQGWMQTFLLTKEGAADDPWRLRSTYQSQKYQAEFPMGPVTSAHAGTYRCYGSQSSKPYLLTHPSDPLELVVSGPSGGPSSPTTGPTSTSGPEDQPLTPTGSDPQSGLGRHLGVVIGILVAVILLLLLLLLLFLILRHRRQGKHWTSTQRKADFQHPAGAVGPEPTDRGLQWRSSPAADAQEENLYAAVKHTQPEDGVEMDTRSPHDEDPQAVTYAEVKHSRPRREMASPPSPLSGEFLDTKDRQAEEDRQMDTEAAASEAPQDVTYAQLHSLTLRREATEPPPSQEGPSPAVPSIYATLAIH
row,Binder,EC50 [nM]
1,"Antibody 4 (antibody, V domains shown) VH: QVQLVQSGAEVKKPGASVKVSCKASGYTFTSYGISWVRQAPGQGLEWMGWISAYNGNTNYAQKLQGRVTMTTDTSTSTAYMELRSLRSDDTAVYYCARSYSGSYWWFDPWGQGTLVTVSS VL: not shown",1.21
2,"Antibody 3 (antibody, V domains shown) VH: QVQLVQSGAEVKKPGASVKVSCKASGYTFTSYGISWVRQAPGQGLEWMGWISAYNGNTNYAQKLQGRVTMTTDTSTSTAYMELRSLRSDDTAVYYCARSYSGSHWWFDPWGQGTLVTVSS VL: not shown",1.57
3,"Antibody 2 (antibody, V domains shown) VH: QVQLVESGGDLVKPGGSLRLSCAASGFTFRDYYMSWIRQAPGKGLEWVSYISPSGSTIFYADSVKGRFTISRDNAKNSLYLQMNSLRAEDTAVYYCAKDRVRLFDYWGQGTLVTVSS VL: EIVLTQSPATLSLSPGERATLSCRASQSVSSSYLAWYQQKPGQAPRLLIYGASTRATGIPARFSGSGSGTDFTLTISRLEPEDFAVYYCQQRSNWPITFGQGTRLEIK",0.52
4,"Antibody 5 (antibody, V domains shown) VH: QVQLVESGGGLVKPGGSLRLSCAASGFTFSDYYMTWIRQAPGKGLEWVSYISISGITRYYADSVKGRFTISRDNAKNSLYLQMNSLRAEDTAVYYCARDQTGYFDYWGQGTLVTVSS VL: DIVMTQSPATLSVSPGEKTTLSCRASQSFSSNLAWYQQKPGQAPRLLIYGASTRATGIPARFSGSGSGTEFTLTISSLQSEDFAVYYCQQYINWPHTFGQGTKVEIK",2.24
5,"Antibody 1 (antibody, V domains shown) VH: QVQLVESGGGLVKPGGSLRLSCAASGFTFSDYYMSWIRQAPGKGLEWVSYISSSGSIKKYADSVKGRFTISRDNAKNSLYLQMNSLRGEDTAVYYCARTNWHFDYWGQGTLVTVSS VL: EIVLTQSPGTLSLSPGERATLSCRASQSVSSSYLAWYQQKPGQAPRLLIFGASTRATGIPDRFSGSGSGTDFTLTISRLEPEDVAVYYCQQYYSTPFTFGPGTKVDIK",0.37
